Laboratory results: US20240390531A1 (IMAGINAB, published 2024)

These binders were tested against T1, purified human FAP antigen (human, UniProt Q12884 26-760, limits assumed) (assay: ELISA, plate coated with purified human FAP antigen (FIG. 56A-56C)).
Description: (§1) Binding kinetics of the novel antigen binding constructs to a purified human FAP antigen was assessed using ELISA. For this assay, a 96 well ELISA plate was coated with the human-FAP antigen diluted to a concentration of 2 mg/mL in coating buffer (0.05M sodium carbonate-bicarbonate buffer, pH 9.6). 100 μl of this coating solution was added to each well in the plate and incubate at 4° C. overnight. The plate was washed 3 times with 300 μl per well of washing buffer (PBS with 0.05% Tween-20). After the last wash, the plate was blocked by adding to each well 200 μl of blocking buffer (PBS with 1% BSA) warmed to room temperature. The plate was then incubated at room temperature for 1 hour under gentle agitation. After blocking, the plate was washed 3 times with 300 μl per well of washing buffer. Dilution samples for each minibody were created by making 2.5× dilutions from a starting sample at 100 ng/mL, or 250 ng/mL, or 1000 ng/mL or 3000 ng/mL in 100 μL sample buffer (PBS with 1% BSA). The dilution samples were transferred to the assay plate and incubated at room temperature for 1 hour under gentle agitation. The plate was then washed 3 times with 300 μl per well of washing buffer.
(§2) Detection was performed by adding 100 μl of HRP labeled detection secondary antibody at an appropriate dilution and incubating the plate at room temperature for 1 hour under gentle agitation. The plate was then washed 3 times with 300 μl per well of washing buffer. For color development, 100 μl of TMB substrate regent, pre-warmed to room temperature, was added to the plate and incubated in the dark at room temperature for 15 min. The reaction was then stopped by adding 100 μl of 650 nm stop solution to the plate and mixed for 1 min at room temperature under gentle agitation. The plate is recorded by reading OD at 650 nm in a plate reader within 20 min after terminating the reaction.

| Kd [nM] | Binder |
| --- | --- |
| ~0.1 | IAB16M2-31 (other) QVQLVQSGAEVKKPGASVKVSCKASGYTFTEYTIHWVRQAPGQRLEWIGGINPNNGIPNYNQKFKGRVTITVDTSASTAYMELSSLRSEDTAVYYCARRRIAYGYDEGHAMDYWGQGTLVTVSSGSTSGGGSGGGSGGGGSSDIVMTQSPDSLAVSLGERATINCKSSQSLLYSRNQKNYLAWYQQKPGQPPKLLIFWASTRESGVPDRFSGSGSGTDFTLTISSLQAEDFAVYYCQQYYSYPLTFGQGTKVEIKEPKSSDKTHTCPPCPPCGGGSSGGGSGGQPREPQVYTLPPSREEMTKNQVSLTCLVKGFYPSDIAVEWESNGQPENNYKTTPPVLDSDGSFFLYSKLTVDKSRWQQGNVFSCSVMHEALHNHYTQKSLSLSPG |
| ~0.1 | IAB16M2-33 (other) QVQLVQSGAEVKKPGASVKVSCKTSRYTFTEYTIHWVRQAPGQRLEWIGGINPNNGIPNYNQKFKGRVTITVDTSASTAYMELSSLRSEDTAVYYCARRRIAYGYDEGHAMDYWGQGTLVTVSSGSTSGGGSGGGSGGGGSSDIVMTQSPDSLAVSLGERATINCKSSQSLLYSRNQKNYLAWYQQKPGQPPKLLIFWASTRESGVPDRFSGSGFGTDFTLTISRLEPEDFAVYYCQQYFSYPLTFGQGTKVEIKEPKSSDKTHTCPPCPPCGGGSSGGGSGGQPREPQVYTLPPSREEMTKNQVSLTCLVKGFYPSDIAVEWESNGQPENNYKTTPPVLDSDGSFFLYSKLTVDKSRWQQGNVFSCSVMHEALHNHYTQKSLSLSPG |
| ~0.1 | IAB16M1-10 (other) EIVLTQSPGTLSLSPGERATLSCRASQSVSRSYLAWYQQKPGQAPRLLIIGASTRATGIPDRFSGSGSGTDFTLTISRLEPEDFAVYYCQQGQVIPPTFGQGTKVEIKGSTSGGGSGGGSGGGGSSEVQLLESGGGLVQPGGSLRLSCAASGFTFSSHAMSWVRQAPGKGLEWVSAIWASGEQYYADSVKGRFTISRDNSKNTLYLQMNSLRAEDTAVYYCAKGWLGNFDYWGQGTLVTVSSEPKSSDKTHTCPPCPPCGGGSSGGGSGGQPREPQVYTLPPSREEMTKNQVSLTCLVKGFYPSDIAVEWESNGQPENNYKTTPPVLDSDGSFFLYSKLTVDKSRWQQGNVFSCSVMHEALHNHYTQKSLSLSPG |
| ~0.1 | IAB16M1-30 (other) DIVMTQSPDSLAVSLGERATINCKSSQSLLYSRNQKNYLAWYQQKPGQPPKLLIFWASTRESGVPDRFSGSGSGTDFTLTISSLQAEDFAVYYCQQYYSYPLTFGQGTKVEIKGSTSGGGSGGGSGGGGSSQVQLVQSGAEVKKPGASVKVSCKASGYTFTEYTIHWVRQAPGQRLEWIGGINPNNGIPNYNQKFKGRVTITVDTSASTAYMELSSLRSEDTAVYYCARRRIAYGYDEGHAMDYWGQGTLVTVSSEPKSSDKTHTCPPCPPCGGGSSGGGSGGQPREPQVYTLPPSREEMTKNQVSLTCLVKGFYPSDIAVEWESNGQPENNYKTTPPVLDSDGSFFLYSKLTVDKSRWQQGNVFSCSVMHEALHNHYTQKSLSLSPG |
| ~0.1 | IAB16M1-32 (other) DIVMTQSPDSLAVSLGERATINCKSSQSLLYSRNQKNYLAWYQQKPGQPPKLLIFWASTRESGVPDRFSGSGFGTDFTLTISRLEPEDFAVYYCQQYFSYPLTFGQGTKVEIKGSTSGGGSGGGSGGGGSSQVQLVQSGAEVKKPGASVKVSCKTSRYTFTEYTIHWVRQAPGQRLEWIGGINPNNGIPNYNQKFKGRVTITVDTSASTAYMELSSLRSEDTAVYYCARRRIAYGYDEGHAMDYWGQGTLVTVSSEPKSSDKTHTCPPCPPCGGGSSGGGSGGQPREPQVYTLPPSREEMTKNQVSLTCLVKGFYPSDIAVEWESNGQPENNYKTTPPVLDSDGSFFLYSKLTVDKSRWQQGNVFSCSVMHEALHNHYTQKSLSLSPG |
| ~0.1 | IAB16M1-36 (other) DIVMTQSPDSLAVSLGERATINCKSSQSLLYSRNQKNYLAWYQQKPGQPPKLLIFWASTRESGVPDRFSGSGSGTDFTLTISRLEPEDFAVYYCQQYYSYPLTFGQGTKVEIKGSTSGGGSGGGSGGGGSSQVQLVQSGAEVKKPGASVKVSCKASGYTFTEYTIHWVRQAPGQRLEWIGGINPNNGIPNYNQKFKGRVTITVDTSASTAYMELSSLRSEDTAVYYCARRRIAYGYDEGHAMDYWGQGTLVTVSSEPKSSDKTHTCPPCPPCGGGSSGGGSGGQPREPQVYTLPPSREEMTKNQVSLTCLVKGFYPSDIAVEWESNGQPENNYKTTPPVLDSDGSFFLYSKLTVDKSRWQQGNVFSCSVMHEALHNHYTQKSLSLSPG |

The binders below were run against T2, human FAP on cells (human, UniProt Q12884 1-760) (assay: flow cytometry on U87-MG glioblastoma cells (FIG. 58B)).
T2 construct: whole, on cells; The cell line is named under assay; also called HT1080 human FAP cells; HT1080-hFAP cells
Description: As disclosed herein, the binding of constructs to cellular targets was assessed using flow cytometry. Stock of 2.5× serial dilution of minibodies were created starting from a concentration of 100 nM in […] FACS buffer (PBS 2% FBS). Cells were added to a Corning V-bottom polypropylene cell culture plate at 200,000 cells/well. The cells were centrifuged at 100 rpm for 3 minutes and the supernatant discarded. The minibody dilution series were transferred to the plate containing cell pellets and incubated for 1 hr at 4° C. The plate was then washed 3 times with FACS buffer at 200 µl/well, discarding supernatant after each wash by centrifugation at 1000 rpm. 50 µl/well of detection antibody R&D AlexaFluor-647 Goat anti Human (H+L) was added at a 1:100 dilution in FACS buffer and incubated at 4° C. 1 hr. The plate was washed 3 times with FACS buffer at 200 µl/well, discarding supernatant after each wash by centrifuging at 1000 rpm. Cells were then fixed by adding 100 µl of 1% paraformaldehyde in PBS and incubating at room temperature for 15 minutes. 100 µl of PBS were added to each well and the plate was analyzed by flow cytometry using the allophycocyanin fluorescence setting.

| Kd [nM] | Binder |
| --- | --- |
| ~0.1 | IAB16M1-10 (other) EIVLTQSPGTLSLSPGERATLSCRASQSVSRSYLAWYQQKPGQAPRLLIIGASTRATGIPDRFSGSGSGTDFTLTISRLEPEDFAVYYCQQGQVIPPTFGQGTKVEIKGSTSGGGSGGGSGGGGSSEVQLLESGGGLVQPGGSLRLSCAASGFTFSSHAMSWVRQAPGKGLEWVSAIWASGEQYYADSVKGRFTISRDNSKNTLYLQMNSLRAEDTAVYYCAKGWLGNFDYWGQGTLVTVSSEPKSSDKTHTCPPCPPCGGGSSGGGSGGQPREPQVYTLPPSREEMTKNQVSLTCLVKGFYPSDIAVEWESNGQPENNYKTTPPVLDSDGSFFLYSKLTVDKSRWQQGNVFSCSVMHEALHNHYTQKSLSLSPG |

These binders were tested against T1, purified human FAP antigen (assay: ELISA, plate coated with purified human FAP antigen (FIG. 56F-56G)).
Description: as §1, §2

| Kd [nM] | Binder |
| --- | --- |
| ~1 | IAB16C4-17 (other) QVQLVQSGAEVKKPGASVKVSCKTSRYTFTEYTIHWVRQAPGQRLEWIGGINPNNGIPNYNQKFKGRVTITVDTSASTAYMELSSLRSEDTAVYYCARRRIAYGYDEGHAMDYWGQGTLVTVSSGGGSGGGGDIVMTQSPDSLAVSLGERATINCKSSQSLLYSRNQKNYLAWYQQKPGQPPKLLIFWASTRESGVPDRFSGSGFGTDFTLTISSLQAEDVAVYYCQQYFSYPLTFGQGTKVEIKGGCPPCPPC |
| ~1 | IAB16C2-18 (other) EVQLLESGGGLVQPGGSLRLSCAASGFTFSSYAMSWVRQAPGKGLEWVSAIIGSGASTYYADSVKGRFTISRDNSKNTLYLQMNSLRAEDTAVYYCAKGWFGGFNYWGQGTLVTVSSSGGGGEIVLTQSPGTLSLSPGERATLSCRASQSVTSSYLAWYQQKPGQAPRLLINVGSRRATGIPDRFSGSGSGTDFTLTISRLEPEDFAVYYCQQGIMLPPTFGQGTKVEIKGGCPPCPPC |
| ~1 | IAB16C1-24 (other) EIVLTQSPGTLSLSPGERATLSCRASQSVSRSYLAWYQQKPGQAPRLLIIGASTRATGIPDRFSGSGSGTDFTLTISRLEPEDFAVYYCQQGQVIPPTFGQGTKVEIKSGGGGEVQLLESGGGLVQPGGSLRLSCAASGFTFSSHAMSWVRQAPGKGLEWVSAIWASGEQYYADSVKGRFTISRDNSKNTLYLQMNSLRAEDTAVYYCAKGWLGNFDYWGQGTLVTVSSGGCPPCPPC |
| ~1 | IAB16C4-19 (other, also called IAB164-19) EVQLLESGGGLVQPGGSLRLSCAASGFTFSSYAMSWVRQAPGKGLEWVSAIIGSGASTYYADSVKGRFTISRDNSKNTLYLQMNSLRAEDTAVYYCAKGWFGGFNYWGQGTLVTVSSGGGSGGGGEIVLTQSPGTLSLSPGERATLSCRASQSVTSSYLAWYQQKPGQAPRLLINVGSRRATGIPDRFSGSGSGTDFTLTISRLEPEDFAVYYCQQGIMLPPTFGQGTKVEIKGGCPPCPPC |
| ~1 | IAB16C2-25 (other) EVQLLESGGGLVQPGGSLRLSCAASGFTFSSHAMSWVRQAPGKGLEWVSAIWASGEQYYADSVKGRFTISRDNSKNTLYLQMNSLRAEDTAVYYCAKGWLGNFDYWGQGTLVTVSSSGGGGEIVLTQSPGTLSLSPGERATLSCRASQSVSRSYLAWYQQKPGQAPRLLIIGASTRATGIPDRFSGSGSGTDFTLTISRLEPEDFAVYYCQQGQVIPPTFGQGTKVEIKGGCPPCPPC |
| ~1 | IAB16C4-27 (other) EVQLLESGGGLVQPGGSLRLSCAASGFTFSSHAMSWVRQAPGKGLEWVSAIWASGEQYYADSVKGRFTISRDNSKNTLYLQMNSLRAEDTAVYYCAKGWLGNFDYWGQGTLVTVSSGGGSGGGGEIVLTQSPGTLSLSPGERATLSCRASQSVSRSYLAWYQQKPGQAPRLLIIGASTRATGIPDRFSGSGSGTDFTLTISRLEPEDFAVYYCQQGQVIPPTFGQGTKVEIKGGCPPCPPC |
| ~1 | IAB16C2-16 (other) QVQLVQSGAEVKKPGASVKVSCKTSRYTFTEYTIHWVRQAPGQRLEWIGGINPNNGIPNYNQKFKGRVTITVDTSASTAYMELSSLRSEDTAVYYCARRRIAYGYDEGHAMDYWGQGTLVTVSSSGGGGDIVMTQSPDSLAVSLGERATINCKSSQSLLYSRNQKNYLAWYQQKPGQPPKLLIFWASTRESGVPDRFSGSGFGTDFTLTISSLQAEDVAVYYCQQYFSYPLTFGQGTKVEIKGGCPPCPPC |
